To fix the notation:
T1: human LAG-3 (human, UniProt P18627 23-525)
T1 chain: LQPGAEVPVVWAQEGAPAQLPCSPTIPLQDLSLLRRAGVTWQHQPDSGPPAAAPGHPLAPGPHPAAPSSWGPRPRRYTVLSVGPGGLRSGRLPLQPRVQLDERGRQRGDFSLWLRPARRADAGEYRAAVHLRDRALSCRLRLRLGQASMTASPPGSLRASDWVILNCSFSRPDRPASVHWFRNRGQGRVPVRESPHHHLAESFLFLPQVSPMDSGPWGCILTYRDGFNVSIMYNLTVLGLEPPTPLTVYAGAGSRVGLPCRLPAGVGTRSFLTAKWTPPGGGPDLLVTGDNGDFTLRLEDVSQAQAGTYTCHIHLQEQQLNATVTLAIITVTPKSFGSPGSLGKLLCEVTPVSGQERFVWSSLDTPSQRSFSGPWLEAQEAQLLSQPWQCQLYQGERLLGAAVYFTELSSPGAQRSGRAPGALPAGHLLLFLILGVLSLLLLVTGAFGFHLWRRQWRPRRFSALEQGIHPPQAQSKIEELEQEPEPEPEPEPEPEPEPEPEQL

B1: anti-CD47 monoclonal antibody (mAb) (antibody, V domains shown)
VH: EVQLVQSGAEVKKPGSSVKVSCKASGYSFTHHWIHWVRQAPGQGLEWMGMIDASDSETRLSQKFKDRVTITADKSTSTAYMELSSLRSEDTAVYYCARLGRYYFDYWGQGTTVTVSS
VL: EIVLTQSPATLSLSPGERATLSCRASENVGTYISWYQQKPGQAPRLLIYGASNRYTGIPARFSGSGSGTDFTLTISSLEPEDFAVYYCGESYGHLYTFGGGTKVEIKR
B2: bispecific antibody LAG3-E-HC (bispecific antibody)
heavy: not shown
light: EIVLTQSPATLSLSPGERATLSCRASENVGTYISWYQQKPGQAPRLLIYGASNRYTGIPARFSGSGSGTDFTLTISSLEPEDFAVYYCGESYGHLYTFGGGTKVEIKRTVAAPSVFIFPPSDEQLKSGTASVVCLLNNFYPREAKVQWKVDNALQSGNSQESVTEQDSKDSTYSLSSTLTLSKADYEKHKVYACEVTHQGLSSPVTKSFNRGEC
B3: bispecific antibody LAG3-G15-HN (bispecific antibody)
heavy: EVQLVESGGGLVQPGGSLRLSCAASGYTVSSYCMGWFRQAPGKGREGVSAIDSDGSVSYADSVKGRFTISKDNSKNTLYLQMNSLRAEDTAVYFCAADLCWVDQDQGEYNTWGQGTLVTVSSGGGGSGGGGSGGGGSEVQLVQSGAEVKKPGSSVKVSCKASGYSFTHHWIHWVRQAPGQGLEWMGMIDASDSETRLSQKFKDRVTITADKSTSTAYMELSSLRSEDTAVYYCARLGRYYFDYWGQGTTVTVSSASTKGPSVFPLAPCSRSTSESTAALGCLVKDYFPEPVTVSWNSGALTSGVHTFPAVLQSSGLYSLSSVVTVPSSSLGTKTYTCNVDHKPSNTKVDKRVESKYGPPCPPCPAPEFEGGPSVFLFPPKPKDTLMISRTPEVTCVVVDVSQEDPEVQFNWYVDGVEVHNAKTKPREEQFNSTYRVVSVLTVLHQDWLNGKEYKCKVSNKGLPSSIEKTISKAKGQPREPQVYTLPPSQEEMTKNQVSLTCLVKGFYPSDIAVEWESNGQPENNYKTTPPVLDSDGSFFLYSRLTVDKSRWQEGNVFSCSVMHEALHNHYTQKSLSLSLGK
light: B2 light
B4: bispecific antibody LAG3-E-HN (bispecific antibody)
heavy: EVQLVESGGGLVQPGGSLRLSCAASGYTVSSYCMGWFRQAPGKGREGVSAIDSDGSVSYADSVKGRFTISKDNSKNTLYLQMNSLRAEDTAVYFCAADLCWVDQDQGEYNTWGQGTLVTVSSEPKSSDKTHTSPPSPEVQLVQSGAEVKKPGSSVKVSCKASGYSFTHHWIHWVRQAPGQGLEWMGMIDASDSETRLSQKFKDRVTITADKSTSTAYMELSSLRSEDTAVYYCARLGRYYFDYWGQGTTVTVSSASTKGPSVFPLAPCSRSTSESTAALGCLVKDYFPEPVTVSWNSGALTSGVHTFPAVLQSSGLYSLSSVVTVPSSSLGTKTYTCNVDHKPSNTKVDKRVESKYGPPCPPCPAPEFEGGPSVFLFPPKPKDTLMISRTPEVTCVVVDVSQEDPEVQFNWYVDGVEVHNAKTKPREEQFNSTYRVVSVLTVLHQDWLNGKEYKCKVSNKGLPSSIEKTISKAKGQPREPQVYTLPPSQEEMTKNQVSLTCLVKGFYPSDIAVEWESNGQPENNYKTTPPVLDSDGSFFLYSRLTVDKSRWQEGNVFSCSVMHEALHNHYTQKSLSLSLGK
light: B2 light
B5: bispecific antibody LAG3-G9-HN (bispecific antibody)
heavy: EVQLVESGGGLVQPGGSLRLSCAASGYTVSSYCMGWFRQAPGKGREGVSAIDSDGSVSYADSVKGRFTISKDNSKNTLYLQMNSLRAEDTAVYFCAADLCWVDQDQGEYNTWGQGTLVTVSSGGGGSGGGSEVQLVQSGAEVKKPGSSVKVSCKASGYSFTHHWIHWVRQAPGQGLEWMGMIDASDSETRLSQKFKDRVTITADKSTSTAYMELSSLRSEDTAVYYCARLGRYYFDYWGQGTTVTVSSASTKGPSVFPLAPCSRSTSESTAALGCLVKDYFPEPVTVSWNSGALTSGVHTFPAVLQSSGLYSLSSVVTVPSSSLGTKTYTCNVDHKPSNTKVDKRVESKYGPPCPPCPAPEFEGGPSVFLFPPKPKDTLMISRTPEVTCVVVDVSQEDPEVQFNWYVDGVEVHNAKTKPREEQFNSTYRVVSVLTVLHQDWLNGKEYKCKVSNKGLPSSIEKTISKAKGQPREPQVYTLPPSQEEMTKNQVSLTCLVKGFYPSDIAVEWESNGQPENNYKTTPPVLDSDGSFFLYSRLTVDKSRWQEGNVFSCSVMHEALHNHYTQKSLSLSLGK
light: B2 light
B6: bispecific antibody LAG3-G15-HC (bispecific antibody)
heavy: not shown
light: B2 light
B7: bispecific antibody LAG3-G9-HC (bispecific antibody)
heavy: not shown
light: B2 light
B8: bispecific antibody LAG3-G9-LN (bispecific antibody)
heavy: not shown
light: EVQLVESGGGLVQPGGSLRLSCAASGYTVSSYCMGWFRQAPGKGREGVSAIDSDGSVSYADSVKGRFTISKDNSKNTLYLQMNSLRAEDTAVYFCAADLCWVDQDQGEYNTWGQGTLVTVSSGGGGSGGGSEIVLTQSPATLSLSPGERATLSCRASENVGTYISWYQQKPGQAPRLLIYGASNRYTGIPARFSGSGSGTDFTLTISSLEPEDFAVYYCGESYGHLYTFGGGTKVEIKRTVAAPSVFIFPPSDEQLKSGTASVVCLLNNFYPREAKVQWKVDNALQSGNSQESVTEQDSKDSTYSLSSTLTLSKADYEKHKVYACEVTHQGLSSPVTKSFNRGEC
B9: bispecific antibody LAG3-E-LN (bispecific antibody)
heavy: not shown
light: EVQLVESGGGLVQPGGSLRLSCAASGYTVSSYCMGWFRQAPGKGREGVSAIDSDGSVSYADSVKGRFTISKDNSKNTLYLQMNSLRAEDTAVYFCAADLCWVDQDQGEYNTWGQGTLVTVSSEPKSSDKTHTSPPSPEIVLTQSPATLSLSPGERATLSCRASENVGTYISWYQQKPGQAPRLLIYGASNRYTGIPARFSGSGSGTDFTLTISSLEPEDFAVYYCGESYGHLYTFGGGTKVEIKRTVAAPSVFIFPPSDEQLKSGTASVVCLLNNFYPREAKVQWKVDNALQSGNSQESVTEQDSKDSTYSLSSTLTLSKADYEKHKVYACEVTHQGLSSPVTKSFNRGEC
B10: bispecific antibody LAG3-G15-LN (bispecific antibody)
heavy: not shown
light: EVQLVESGGGLVQPGGSLRLSCAASGYTVSSYCMGWFRQAPGKGREGVSAIDSDGSVSYADSVKGRFTISKDNSKNTLYLQMNSLRAEDTAVYFCAADLCWVDQDQGEYNTWGQGTLVTVSSGGGGSGGGGSGGGGSEIVLTQSPATLSLSPGERATLSCRASENVGTYISWYQQKPGQAPRLLIYGASNRYTGIPARFSGSGSGTDFTLTISSLEPEDFAVYYCGESYGHLYTFGGGTKVEIKRTVAAPSVFIFPPSDEQLKSGTASVVCLLNNFYPREAKVQWKVDNALQSGNSQESVTEQDSKDSTYSLSSTLTLSKADYEKHKVYACEVTHQGLSSPVTKSFNRGEC
B11: bispecific antibody LAG3-E-LC (bispecific antibody)
heavy: not shown
light: EIVLTQSPATLSLSPGERATLSCRASENVGTYISWYQQKPGQAPRLLIYGASNRYTGIPARFSGSGSGTDFTLTISSLEPEDFAVYYCGESYGHLYTFGGGTKVEIKRTVAAPSVFIFPPSDEQLKSGTASVVCLLNNFYPREAKVQWKVDNALQSGNSQESVTEQDSKDSTYSLSSTLTLSKADYEKHKVYACEVTHQGLSSPVTKSFNRGECEPKSSDKTHTSPPSPEVQLVESGGGLVQPGGSLRLSCAASGYTVSSYCMGWFRQAPGKGREGVSAIDSDGSVSYADSVKGRFTISKDNSKNTLYLQMNSLRAEDTAVYFCAADLCWVDQDQGEYNTWGQGTLVTVSS

In one assay the target is human CD47 (human, UniProt Q08722 19-323). Briefly: flow.
Sequence of human CD47 (Q08722 19-323): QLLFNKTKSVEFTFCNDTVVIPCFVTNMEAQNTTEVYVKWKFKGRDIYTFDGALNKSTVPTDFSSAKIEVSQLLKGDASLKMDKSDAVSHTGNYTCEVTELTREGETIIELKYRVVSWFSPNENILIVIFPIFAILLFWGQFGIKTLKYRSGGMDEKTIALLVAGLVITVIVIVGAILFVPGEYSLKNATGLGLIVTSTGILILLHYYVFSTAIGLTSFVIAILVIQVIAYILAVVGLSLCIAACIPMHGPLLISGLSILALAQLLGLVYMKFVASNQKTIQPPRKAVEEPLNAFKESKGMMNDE
In turn, B1 registered an EC50 of 1010 pM.

In turn, B2 registered an EC50 of 1170 pM.

In turn, B3 registered an EC50 of 3850 pM.

For the molecule B4, a half-maximal effect (EC50) was put at 4440 pM. The EC50 values of the last two molecules are within 1.5-fold of each other.

The molecule B5 registered a concentration giving a half-maximal response (EC50) of 3960 pM.

On to B6, for which the response was half-maximal at 911 pM (EC50).

B7: a half-maximal response (EC50) required 864 pM.

Another assay concerns the target T1, human LAG-3. Briefly: flow cytometry, CHO-K1 cells expressing human LAG-3; FIG. 1. (In flow cytometry, cells or beads pass a laser one at a time.)
Molecule B2 registered an EC50 of 800 pM.

On to B3, for which a half-maximal response (EC50) required 570 pM.

With B4, the half-maximal effective concentration (EC50) amounted to 526 pM.

The molecule B5 showed an EC50 of 477 pM. The EC50 values of the last two molecules are within 1.5-fold of each other.

In turn, B6 returned an EC50 of 672 pM.

B7 returned an EC50 of 602 pM.

In the next assay the target is T1, human LAG-3. Put plainly: flow cytometry, CHO-K1 cells expressing human LAG-3; FIG. 2.
As for B8, the 50% effective concentration (EC50) was 322 pM.

The molecule B9 returned an EC50 of 448 pM. The EC50 values of the last two molecules are within 1.5-fold of each other.

B10: the EC50 came to 535 pM.

B11 registered an EC50 of 552 pM.

What is called EC50 is the midpoint of the concentration-response curve. A higher EC50 goes with a less potent agent.

Source of the values: patent publication US20220267436A1 (published 2022).
